Paper PMC10156733, “N-Formimidoylation/-iminoacetylation modification in aminoglycosides requires FAD-dependent and ligand-protein NOS bridge dual chemistry” (Nature Communications, 2023)

What was measured:
Orf1 [1] = target: T1, Orf1 (Streptomyces luteocolor, UniProt A0A125SZC1); assay: LC-MS of denatured protein; X-ray crystal structure; format: binding; conditions: prosthetic group, copurified
T1 construct: full length, 491 residues; pET28a, His-tagged (Ni-NTA), E. coli BL21(DE3); tetramer with FAD in each chain; peptide AFAC281GLHLVPR
T1 sequence (A0A125SZC1 1-491): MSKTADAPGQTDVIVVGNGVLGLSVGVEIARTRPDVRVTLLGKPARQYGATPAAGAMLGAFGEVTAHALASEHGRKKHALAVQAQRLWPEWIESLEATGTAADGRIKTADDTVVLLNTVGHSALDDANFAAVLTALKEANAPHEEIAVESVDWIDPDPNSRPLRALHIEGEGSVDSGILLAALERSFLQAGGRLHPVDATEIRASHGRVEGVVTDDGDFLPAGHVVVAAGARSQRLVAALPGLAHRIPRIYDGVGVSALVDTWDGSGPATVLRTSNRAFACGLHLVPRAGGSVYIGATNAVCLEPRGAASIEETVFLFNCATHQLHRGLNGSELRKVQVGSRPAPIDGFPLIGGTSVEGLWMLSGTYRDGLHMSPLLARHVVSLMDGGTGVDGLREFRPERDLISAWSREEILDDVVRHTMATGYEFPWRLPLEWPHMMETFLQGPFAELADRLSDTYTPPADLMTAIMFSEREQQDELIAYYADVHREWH

[2] = tested on: NCCCC(N)CC(=O)NC1C(N=C2NC3C(=O)NCC(O)C3N2)OC(CO)C(OC(N)=O)C1O; assay: LC-MS of ST-F consumption; format: biochemical, Streptomyces luteocolor; conditions: glycine + ST-F, ST-F varied 25-500 μM, 100 mM sodium phosphate pH 8, 37 °C, crystal complex with glycine
Orf1 [3] = target: T2, Orf1 (Streptomyces luteocolor, UniProt A0A125SZC1, E312A); assay: isothermal titration calorimetry; format: binding
T2 construct: full length, 491 residues; pET28a, His-tagged (Ni-NTA), E. coli BL21(DE3); tetramer with FAD in each chain; peptide AFAC281GLHLVPR

Orf1 [4] = target: T3, Orf1 (Streptomyces luteocolor, UniProt A0A125SZC1, R342A); assay: isothermal titration calorimetry; format: binding
T3 construct: full length, 491 residues; pET28a, His-tagged (Ni-NTA), E. coli BL21(DE3); tetramer with FAD in each chain; peptide AFAC281GLHLVPR
Description: isothermal titration calorimetry on Orf1 | held the same ST-F binding affinity as the wild type

Orf1 [5] = target: T1, Orf1; assay: isothermal titration calorimetry; format: binding
Description: isothermal titration calorimetry on Orf1 | binding affinities of ST-F versus Orf1 wild-type or mutants were estimated

[6] = target: T4, AAC(6’)-Ie-APH(6”)-Ia; aac(6’)-Ie-aph(2”)-Ia (Staphylococcus aureus, UniProt P0A0C1); assay: in vitro N-acetylation assay; format: biochemical; conditions: acetylation only to some extent
T4 construct: gene aacA-aphD; synthetic gene, recombinant

purified protein = substrate: NCC(=O)O; assay: purified protein; format: biochemical, Streptomyces luteocolor; conditions: single substrate glycine (oxidation phase), 100 mM sodium phosphate pH 8, crystal complex also shows covalent glycine imine-N-O-S adduct at C281
[7] = substrate: NCCCC(N)CC(=O)NC1C(N=C2NC3C(=O)NCC(O)C3N2)OC(CO)C(OC(N)=O)C1O; assay: LC-MS of ST-F consumption; format: biochemical, Streptomyces luteocolor; conditions: glycine + ST-F, ST-F varied 25-500 μM, 100 mM sodium phosphate pH 8, 37 °C

Cc1cc2nc3c(=O)[nH]c(=O)nc-3n(C[C@H](O)[C@H](O)[C@H](O)COP(=O)(O)OP(=O)(O)OC[C@H]3O[C@@H](n4cnc5c(N)ncnc54)[C@H](O)[C@@H]3O)c2cc1C [FAD]
LC-MS of denatured protein; X-ray crystal structure (Orf1 [1]): This yellow cofactor was determined to be flavin adenine dinucleotide (FAD)

Orf1 (Streptomyces luteocolor; F316A)
Km [2]: 190 µM
kcat [2]: 0.119 s⁻¹

NCCCC(N)CC(=O)NC1C(N=C2NC3C(=O)NCC(O)C3N2)OC(CO)C(OC(N)=O)C1O (centres unmarked) [compound 7, ST-F]
Kd (Orf1 [3]): 55.2 µM
Kd (Orf1 [4]): 14.3 µM
Kd (Orf1 [5]): 11.3 µM

NCC(=O)N[C@@H]1[C@H](O)[C@@H](OC(N)=O)[C@@H](CO)O[C@H]1N=C1N[C@@H]2[C@H](O)CNC(=O)[C@H]2N1 [compound 4, glycylthricin]
in vitro N-acetylation assay [6]: inactivated glycylthricin by N-acetylation to some extent in in vitro assay

B1: Orf1 (Streptomyces luteocolor) (protein)
chain: T1 sequence (A0A125SZC1 1-491)
notes: full length, 491 residues; pET28a, His-tagged (Ni-NTA), E. coli BL21(DE3); tetramer with FAD in each chain; peptide AFAC281GLHLVPR
Km (purified protein): 202 µM
kcat (purified protein): 0.0123 s⁻¹
Km [7]: 196 µM
kcat [7]: 0.0513 s⁻¹
